Paper PMC11398462 (bioRxiv, 2024)

Biological target: the molecule itself
Assay: SEC

B1: Lipo-YcjN (recombinantly overexpressed lipidated YcjN, heterogeneously diacylated at cysteine 21) (natural protein, E. coli K-12, UniProt P76042 21-430, looked up)
chain: CKEENKTNVSIEFMHSSVEQERQAVISKLIARFEKENPGITVKQVPVEEDAYNTKVITLSRSGSLPEVIETSHDYAKVMDKEQLIDRKAVATVISNVGEGAFYDGVLRIVRTEDGSAWTGVPVSAWIGGIWYRKDVLAKAGLEEPKNWQQLLDVAQKLNDPANKKYGIALPTAESVLTEQSFSQFALSNQANVFNAEGKITLDTPEMMQALTYYRDLTANTMPGSNDIMEVKDAFMNGTAPMAIYSTYILPAVIKEGDPKNVGFVVPTEKNSAVYGMLTSLTITAGQKTEETEAAEKFVTFMEQADNIADWVMMSPGAALPVNKAVVTTATWKDNDVIKALGELPNQLIGELPNIQVFGAVGDKNFTRMGDVTGSGVVSSMVHNVTVGKADLSTTLQASQKKLDELIEQH
modifications: cysteine 21 diacylated, acyl chain compositions [16:0, 16:0] and [16:0, 18:1]
- binding result: binds
